# Results reported in patent publication US20220098307A1 (WUHAN YZY BIOPHARMA, published 2022).
# What was measured:
# Human CD3ε = biological target: T1, Human CD3ε (human, UniProt P07766 23-126); assay: flow cytometry, human T cells
# T1 construct: CD3 on T cells isolated from human whole blood
# Excerpt: 1) Cell preparation: T cells isolated from CD3-positive human whole blood were used for a CD3 end affinity detection of multifunctional antibody molecule; positive tumor cells of corresponding antigen were used for detecting affinity of tumor antigen; for example, CD38-positive MM. 1S cells (purchased from the Cell Resource Center of Shanghai Institutes for Biological Sciences, Chinese Academy of Sciences) or RPMI 8226 cells (purchased from the Cell Resource Center of Shanghai Institutes for Biological Sciences, Chinese Academy of Sciences) were used for CD38 antigen detection, and PD-L1 positive H358 cells (purchased from the Cell Resource Center of Shanghai Institutes for Biological Sciences, Chinese Academy of Sciences) were used for PD-L1 antigen detection, and so on. The cells were resuspended with 1% FBS-PBS, adjusted to a density of 4×10⁶/ml, and 50 μl of cells were taken from each well, and then plated at 2×10⁵ per well. Cell plating was operated on ice
# 2) Addition of the antibody: according to the experimental design, the antibody was diluted gradually, and dilution of antibody was operated on ice. For example, the initial concentration of antibody for dilution was 3000 nM, and the antibody was diluted by 3 times with 11 concentration gradients. The diluted antibody was added to a cell well at 50 μl per well, mixed well, and shaked and incubated at 4° C. 1100 rpm/min for 2 h; after washing, the cells were resuspend in 1% FBS-PBS, and a diluted secondary antibody PE anti-human IgG FC (Biolegend, 409304) was added with a final concentration of 8 ug/ml and a volume of 50 μl/well. At the same time, a well only added with cells and secondary antibody was set as a control, the components were mixed well, and incubated under shaking at 1100 rpm/min at 4° C. for 1 h;
# 5) Data analysis: the data was analyzed by a flow analysis software FlowJo 7.6 thereby obtaining an average fluorescence intensity of the specific antibody concentration, plotted by a Graphpad Prism 5 with the antibody concentration (nM) as an abscissa and the average fluorescence intensity as an ordinate; the EC50 value was calculated by the method of One site—Specific binding, and the EC50 value indicated the cell affinity of the antibody to the corresponding target antigen.
# Monkey CD3 = biological target: T2, Monkey CD3 (monkey); assay: flow cytometry, monkey T cells
# T2 construct: whole, on cells; also called CD3 of monkey CD3 positive T cells
Binder,EC50 (Human CD3ε) [nM],EC50 (Monkey CD3) [nM]
"M1IC-DG2-1 (bispecific antibody, human IgG1, kappa, structure 1 isotype control; CH2 DG2CH2; also called MlIC-DG2-1) QVQLVESGGGVVQPGRSLRLSCAASGFTFSTYAMNWVRQAPGKGLEWVARIRSKYNNYATYYADSVKDRFTISRDDSKNTLYLQMNSLRAEDTAVYYCARHGNFGNSYVSWFAYWGQGTLVTVSSGGGGSGGGGSGGGGSQTVVTQEPSLTVSPGGTVTLTCRSSTGAVTTSNYANWVQQKPGQAPRGLIGGTNKRAPGVPARFSGSLLGGKAALTLSGVQPEDEAEYYCALWYSNLWVFGGGTKVEIKGGGGSDKTHTCPPCPAPPVAGPSVFLFPPKPKDTLMISRTPEVTCVVVAVSHEDPEVQFNWYVDGVEVHNAKTKPREEQFNSTFRVVSVLTVVHQDWLNGKEYKCKVSNKGLPAPIEKTISKTKGQPREPQVCTLPPSRDELTKNQVSLSCAVKGFYPSDIAVEWESNGQPENNYKTTPPVLDSDGSFFLVSKLTVDKSRWQQGNVFSCSVMHEALHNHYTQKSLSLSPGK heavy: EVKLDETGGGLVQPGRPMKLSCVASGFTFSDYWMNWVRQSPEKGLEWVAQIRNKPYNYETYYSDSVKGRFTISRDDSKSSVYLQMNNLRVEDMGIYYCTGSYYGMDYWGQGTSVTVSSASTKGPSVFPLAPSSKSTSGGTAALGCLVKDYFPEPVTVSWNSGALTSGVHTFPAVLQSSGLYSLSSVVTVPSSSLGTQTYICNVNHKPSNTKVDKKVEPKSCDKTHTCPPCPAPPVAGPSVFLFPPKPKDTLMISRTPEVTCVVVAVSHEDPEVQFNWYVDGVEVHNAKTKPREEQFNSTFRVVSVLTVVHQDWLNGKEYKCKVSNKGLPAPIEKTISKTKGQPREPQVYTLPPCRDELTKNQVSLWCLVKGFYPSDIAVEWESNGQPENNYKTTPPVLDSDGSFFLYSKLTVDKSRWQQGNVFSCSVMHEALHNHYTQKSLSLSPGK light: DVVMTQTPLSLPVSLGDQASISCRSSQSLVHSNGNTYLRWYLQKPGQSPKVLIYKVSNRFSGVPDRFSGSGSGTDFTLKISRVEAEDLGVYFCSQSTHVPWTFGGGTKLEIKRTVAAPSVFIFPPSDEQLKSGTASVVCLLNNFYPREAKVQWKVDNALQSGNSQESVTEQDSKDSTYSLSSTLTLSKADYEKHKVYACEVTHQGLSSPVTKSFNRGEC",120,130
"M1IC-G2D-1 (bispecific antibody, human IgG1, kappa, structure 1 isotype control; CH2 G2DCH2) QVQLVESGGGVVQPGRSLRLSCAASGFTFSTYAMNWVRQAPGKGLEWVARIRSKYNNYATYYADSVKDRFTISRDDSKNTLYLQMNSLRAEDTAVYYCARHGNFGNSYVSWFAYWGQGTLVTVSSGGGGSGGGGSGGGGSQTVVTQEPSLTVSPGGTVTLTCRSSTGAVTTSNYANWVQQKPGQAPRGLIGGTNKRAPGVPARFSGSLLGGKAALTLSGVQPEDEAEYYCALWYSNLWVFGGGTKVEIKGGGGSDKTHTCPPCPAPPVAGPSVFLFPPKPKDTLMISRTPEVTCVVVDVSHEAPEVQFNWYVDGVEVHNAKTKPREEQFNSTFRVVSVLTVVHQDWLNGKEYKCKVSNKGLPAPIEKTISKTKGQPREPQVCTLPPSRDELTKNQVSLSCAVKGFYPSDIAVEWESNGQPENNYKTTPPVLDSDGSFFLVSKLTVDKSRWQQGNVFSCSVMHEALHNHYTQKSLSLSPGK heavy: EVKLDETGGGLVQPGRPMKLSCVASGFTFSDYWMNWVRQSPEKGLEWVAQIRNKPYNYETYYSDSVKGRFTISRDDSKSSVYLQMNNLRVEDMGIYYCTGSYYGMDYWGQGTSVTVSSASTKGPSVFPLAPSSKSTSGGTAALGCLVKDYFPEPVTVSWNSGALTSGVHTFPAVLQSSGLYSLSSVVTVPSSSLGTQTYICNVNHKPSNTKVDKKVEPKSCDKTHTCPPCPAPPVAGPSVFLFPPKPKDTLMISRTPEVTCVVVDVSHEAPEVQFNWYVDGVEVHNAKTKPREEQFNSTFRVVSVLTVVHQDWLNGKEYKCKVSNKGLPAPIEKTISKTKGQPREPQVYTLPPCRDELTKNQVSLWCLVKGFYPSDIAVEWESNGQPENNYKTTPPVLDSDGSFFLYSKLTVDKSRWQQGNVFSCSVMHEALHNHYTQKSLSLSPGK light: DVVMTQTPLSLPVSLGDQASISCRSSQSLVHSNGNTYLRWYLQKPGQSPKVLIYKVSNRFSGVPDRFSGSGSGTDFTLKISRVEAEDLGVYFCSQSTHVPWTFGGGTKLEIKRTVAAPSVFIFPPSDEQLKSGTASVVCLLNNFYPREAKVQWKVDNALQSGNSQESVTEQDSKDSTYSLSSTLTLSKADYEKHKVYACEVTHQGLSSPVTKSFNRGEC",101,143
"M1IC-DG2D-1 (bispecific antibody, human IgG1, kappa, structure 1 isotype control; CH2 DG2DCH2) QVQLVESGGGVVQPGRSLRLSCAASGFTFSTYAMNWVRQAPGKGLEWVARIRSKYNNYATYYADSVKDRFTISRDDSKNTLYLQMNSLRAEDTAVYYCARHGNFGNSYVSWFAYWGQGTLVTVSSGGGGSGGGGSGGGGSQTVVTQEPSLTVSPGGTVTLTCRSSTGAVTTSNYANWVQQKPGQAPRGLIGGTNKRAPGVPARFSGSLLGGKAALTLSGVQPEDEAEYYCALWYSNLWVFGGGTKVEIKGGGGSDKTHTCPPCPAPPVAGPSVFLFPPKPKDTLMISRTPEVTCVVVAVSHEAPEVQFNWYVDGVEVHNAKTKPREEQFNSTFRVVSVLTVVHQDWLNGKEYKCKVSNKGLPAPIEKTISKTKGQPREPQVCTLPPSRDELTKNQVSLSCAVKGFYPSDIAVEWESNGQPENNYKTTPPVLDSDGSFFLVSKLTVDKSRWQQGNVFSCSVMHEALHNHYTQKSLSLSPGK heavy: EVKLDETGGGLVQPGRPMKLSCVASGFTFSDYWMNWVRQSPEKGLEWVAQIRNKPYNYETYYSDSVKGRFTISRDDSKSSVYLQMNNLRVEDMGIYYCTGSYYGMDYWGQGTSVTVSSASTKGPSVFPLAPSSKSTSGGTAALGCLVKDYFPEPVTVSWNSGALTSGVHTFPAVLQSSGLYSLSSVVTVPSSSLGTQTYICNVNHKPSNTKVDKKVEPKSCDKTHTCPPCPAPPVAGPSVFLFPPKPKDTLMISRTPEVTCVVVAVSHEAPEVQFNWYVDGVEVHNAKTKPREEQFNSTFRVVSVLTVVHQDWLNGKEYKCKVSNKGLPAPIEKTISKTKGQPREPQVYTLPPCRDELTKNQVSLWCLVKGFYPSDIAVEWESNGQPENNYKTTPPVLDSDGSFFLYSKLTVDKSRWQQGNVFSCSVMHEALHNHYTQKSLSLSPGK light: DVVMTQTPLSLPVSLGDQASISCRSSQSLVHSNGNTYLRWYLQKPGQSPKVLIYKVSNRFSGVPDRFSGSGSGTDFTLKISRVEAEDLGVYFCSQSTHVPWTFGGGTKLEIKRTVAAPSVFIFPPSDEQLKSGTASVVCLLNNFYPREAKVQWKVDNALQSGNSQESVTEQDSKDSTYSLSSTLTLSKADYEKHKVYACEVTHQGLSSPVTKSFNRGEC",128,181
"M1IC-GG2-1 (bispecific antibody, human IgG1, kappa, structure 1 isotype control; CH2 GG2CH2) QVQLVESGGGVVQPGRSLRLSCAASGFTFSTYAMNWVRQAPGKGLEWVARIRSKYNNYATYYADSVKDRFTISRDDSKNTLYLQMNSLRAEDTAVYYCARHGNFGNSYVSWFAYWGQGTLVTVSSGGGGSGGGGSGGGGSQTVVTQEPSLTVSPGGTVTLTCRSSTGAVTTSNYANWVQQKPGQAPRGLIGGTNKRAPGVPARFSGSLLGGKAALTLSGVQPEDEAEYYCALWYSNLWVFGGGTKVEIKGGGGSDKTHTCPPGPAPPVAGPSVFLFPPKPKDTLMISRTPEVTCVVVDVSHEDPEVQFNWYVDGVEVHNAKTKPREEQFNSTFRVVSVLTVVHQDWLNGKEYKCKVSNKGLPAPIEKTISKTKGQPREPQVCTLPPSRDELTKNQVSLSCAVKGFYPSDIAVEWESNGQPENNYKTTPPVLDSDGSFFLVSKLTVDKSRWQQGNVFSCSVMHEALHNHYTQKSLSLSPGK heavy: EVKLDETGGGLVQPGRPMKLSCVASGFTFSDYWMNWVRQSPEKGLEWVAQIRNKPYNYETYYSDSVKGRFTISRDDSKSSVYLQMNNLRVEDMGIYYCTGSYYGMDYWGQGTSVTVSSASTKGPSVFPLAPSSKSTSGGTAALGCLVKDYFPEPVTVSWNSGALTSGVHTFPAVLQSSGLYSLSSVVTVPSSSLGTQTYICNVNHKPSNTKVDKKVEPKSCDKTHTCPPGPAPPVAGPSVFLFPPKPKDTLMISRTPEVTCVVVDVSHEDPEVQFNWYVDGVEVHNAKTKPREEQFNSTFRVVSVLTVVHQDWLNGKEYKCKVSNKGLPAPIEKTISKTKGQPREPQVYTLPPCRDELTKNQVSLWCLVKGFYPSDIAVEWESNGQPENNYKTTPPVLDSDGSFFLYSKLTVDKSRWQQGNVFSCSVMHEALHNHYTQKSLSLSPGK light: DVVMTQTPLSLPVSLGDQASISCRSSQSLVHSNGNTYLRWYLQKPGQSPKVLIYKVSNRFSGVPDRFSGSGSGTDFTLKISRVEAEDLGVYFCSQSTHVPWTFGGGTKLEIKRTVAAPSVFIFPPSDEQLKSGTASVVCLLNNFYPREAKVQWKVDNALQSGNSQESVTEQDSKDSTYSLSSTLTLSKADYEKHKVYACEVTHQGLSSPVTKSFNRGEC",168,166
